Results on 8 molecules are retold here after article PMC1331984.

Series [1] has as its target T1, TraI36 (F TraI relaxase domain) (Escherichia coli F plasmid (F factor), UniProt P14565 1-330).
T1 sequence: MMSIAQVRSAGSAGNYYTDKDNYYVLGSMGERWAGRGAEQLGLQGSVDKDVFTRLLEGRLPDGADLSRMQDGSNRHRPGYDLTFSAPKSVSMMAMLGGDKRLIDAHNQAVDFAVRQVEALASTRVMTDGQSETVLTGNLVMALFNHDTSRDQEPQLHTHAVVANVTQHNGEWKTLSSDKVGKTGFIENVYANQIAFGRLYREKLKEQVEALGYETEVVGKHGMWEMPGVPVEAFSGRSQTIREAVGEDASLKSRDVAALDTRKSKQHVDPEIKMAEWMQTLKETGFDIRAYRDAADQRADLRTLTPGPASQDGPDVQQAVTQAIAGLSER
Kind of series: fluorescence anisotropy and intensity.

Series [2] has as its target T1, TraI36 (F TraI relaxase domain). Kind of series: fluorescence dissociation kinetics.
The target is the same in series [3]. Kind of series: fluorescence anisotropy and intensity. The source holds these as a separate data set. (Polarisation of emitted light reports the rotation of a fluorescent probe.)
The target is the same in series [4]. Kind of series: competition.

Numbering of substitutions follows the chain as printed. Where two headings read alike, the source gives them in different places.

B1: G167'C/C166'G Hairpin (structured_DNA)
DNA: CGAAAAACTTGTTTTTGCGTGGGGTGTGGT
On to B1, for which binding in series [1] was put at a Kd of 12 ± 1.8 nM.

B2: G151'C/C150'G Hairpin (structured_DNA)
DNA: GCAAAAACTTGTTTTTCGGTGGGGTGTGGT
Consider B2, for which the binding result in series [2] is given as “binds”.

B3: No Hairpin (ssDNA)
DNA: CGTTTTTGTTGTTTTTGCGTGGGGTGTGGT
In the case of B3, the Kd – broadly, the concentration at which binding is half-saturated – in series [3] stood at 16 ± 1 nM.

B4: WT 17mer (ssDNA)
DNA: TTTGCGTGGGGTGTGGT
B4 came in with a Kd in series [3] of 39 ± 0.8 nM.

B5: G151'C/C150'G 17mer (ssDNA)
DNA: TTTCGGTGGGGTGTGGT
Regarding B5, the dissociation constant Kd in series [3] amounted to 390 ± 9 nM.

B6: WT Hairpin (structured_DNA)
DNA: B1 DNA with C1G, G2C
On to B6, for which the Kd in series [1] was 6.8 ± 1.2 nM.

B7: G144'C 17mer (ssDNA)
DNA: TTTGCGTGGGCTGTGGT
Consider B7, for which the binding result in series [4] is on record as “no binding”.

B8: G167'C/C166'G/G151'C/C150'G Hairpin (structured_DNA)
DNA: B1 DNA with G17C, C18G
Regarding B8, the affinity in series [3], expressed as Kd, was 78 ± 2 nM.
